Results as given in publication PMC7494816.

Columns and labels:
[1] = target: 2:1:1 Vps75–Rtt109–(H3-H4) complex formed from co-expressed Vps75–Rtt109 (Saccharomyces cerevisiae | Xenopus laevis) (UniProt P53853); test: SEC-MALS; 20 μM co-expressed 2:1 Vps75–Rtt109 with 20 or 40 μM H3-H4 or H3DM-H4; Superdex 200 Increase 10/300 GL; 20 mM Tris–HCl pH 7.5, 300 mM NaCl, 0.5 mM TCEP
[2] = target: 2:1:1 Vps75–Rtt109–(H3-H4) complex, reconstituted from individually purified Vps75 and Rtt109 (Saccharomyces cerevisiae | Xenopus laevis) (UniProt P53853); test: AUC; sedimentation velocity; 0.5 or 1 equivalent of H3-H4 or H3DM-H4 titrated against Vps75–Rtt109 reconstituted at 2:2 or 2:1 (relative to 7.5 μM Vps75), with 2:2 mixes of Vps75 and histones for reference; 20 mM Tris pH 7.5, 150 mM NaCl, 0.5 mM TCEP, 20°C
[3] = target: co-expressed and co-purified 2:1 Vps75–Rtt109 complex (Saccharomyces cerevisiae) (UniProt P53853); test: SEC-MALS; 20 μM co-expressed 2:1 Vps75–Rtt109 with 20 or 40 μM H3-H4 or H3DM-H4; Superdex 200 Increase 10/300 GL; 20 mM Tris–HCl pH 7.5, 300 mM NaCl, 0.5 mM TCEP
[4] = target: Vps75–Rtt109 complex reconstituted at 2:1 from individually purified proteins (Saccharomyces cerevisiae) (UniProt P53853); test: AUC; sedimentation velocity; 0.5 or 1 equivalent of H3-H4 or H3DM-H4 titrated against Vps75–Rtt109 reconstituted at 2:2 or 2:1 (relative to 7.5 μM Vps75), with 2:2 mixes of Vps75 and histones for reference; 20 mM Tris pH 7.5, 150 mM NaCl, 0.5 mM TCEP, 20°C
[5] = target: Vps75–Rtt109 complex reconstituted at 2:2 from individually purified proteins (Saccharomyces cerevisiae) (UniProt P53853); test: as above; settings: scale: H3-H4 per Vps75 dimer

Substance: 2:1:1 Vps75–Rtt109–(H3-H4) complex formed from co-expressed Vps75–Rtt109 (from UniProt P53853 1-264; Q07794 1-436; P84233 1-136; P62799 1-103)
- stoichiometry N (copies of the 2:1:1 sub-complex (4:2:2)) [1]: 2

Substance: 2:1:1 Vps75–Rtt109–(H3-H4) complex, reconstituted from individually purified Vps75 and Rtt109 (from UniProt P53853 1-264; Q07794 1-436; P84233 1-136; P62799 1-103)
- stoichiometry N (copies of the 2:1:1 complex (4:2:2)) [2]: 2

Substance: Xenopus laevis H3DM-H4 (H3 dimerization mutant C110E, L126A, I130A with H4), refolded (from UniProt P62799 1-103) (complex)
- stoichiometry N (H3DM-H4 per 2:1 Vps75–Rtt109 (2:1:1)) [3]: 1
- stoichiometry N (H3DM-H4 per Vps75 dimer (printed 2:2:1)) [4]: 1

Substance: Xenopus laevis histones H3-H4 (wild type), refolded (from UniProt P84233 1-136; P62799 1-103) (complex)
- stoichiometry N (H3-H4 per 2:1 Vps75–Rtt109 (2:1:1)) [3]: 1
- stoichiometry N [5]: 1
